# Laboratory results as given in IntAct's records for PubMed 31515488.
# B1: Four and a half LIM domains protein 2 (Homo sapiens), Q14192 (parent)
# chain: MTERFDCHHCNESLFGKKYILREESPYCVVCFETLFANTCEECGKPIGCDCKDLSYKDRHWHEACFHCSQCRNSLVDKPFAAKEDQLLCTDCYSNEYSSKCQECKKTIMPGTRKMEYKGSSWHETCFICHRCQQPIGTKSFIPKDNQNFCVPCYEKQHAMQCVQCKKPITTGGVTYREQPWHKECFVCTACRKQLSGQRFTARDDFAYCLNCFCDLYAKKCAGCTNPISGLGGTKYISFEERQWHNDCFNCKKCSLSLVGRGFLTERDDILCPDCGKDI
# partner: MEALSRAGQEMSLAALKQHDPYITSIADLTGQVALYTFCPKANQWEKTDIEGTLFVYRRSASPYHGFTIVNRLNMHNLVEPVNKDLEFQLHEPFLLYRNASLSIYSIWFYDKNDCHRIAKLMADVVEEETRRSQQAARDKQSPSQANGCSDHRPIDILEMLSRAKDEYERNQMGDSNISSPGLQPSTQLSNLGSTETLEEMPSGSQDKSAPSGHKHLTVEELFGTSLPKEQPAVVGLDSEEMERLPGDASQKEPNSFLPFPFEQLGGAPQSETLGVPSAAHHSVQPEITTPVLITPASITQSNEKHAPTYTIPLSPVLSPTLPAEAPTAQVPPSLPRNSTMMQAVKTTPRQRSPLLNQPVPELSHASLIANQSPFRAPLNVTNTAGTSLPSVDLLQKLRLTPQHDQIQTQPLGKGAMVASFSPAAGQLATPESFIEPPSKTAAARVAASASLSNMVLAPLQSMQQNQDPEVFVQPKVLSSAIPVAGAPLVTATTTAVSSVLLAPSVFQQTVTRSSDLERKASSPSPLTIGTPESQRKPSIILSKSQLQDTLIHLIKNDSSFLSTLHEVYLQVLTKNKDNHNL
# B2: Tuftelin-interacting protein 11 (Homo sapiens), Q9UBB9 (parent)
# chain: MSLSHLYRDGEGRIDDDDDERENFEITDWDLQNEFNPNRQRHWQTKEEATYGVWAERDSDDERPSFGGKRARDYSAPVNFISAGLKKGAAEEAELEDSDDEEKPVKQDDFPKDFGPRKLKTGGNFKPSQKGFAGGTKSFMDFGSWERHTKGIGQKLLQKMGYVPGRGLGKNAQGIINPIEAKQRKGKGAVGAYGSERTTQSMQDFPVVDSEEEAEEEFQKELSQWRKDPSGSKKKPKYSYKTVEELKAKGRISKKLTAPQKELSQVKVIDMTGREQKVYYSYSQISHKHNVPDDGLPLQSQQLPQSGKEAKAPGFALPELEHNLQLLIDLTEQEIIQNDRQLQYERDMVVNLFHELEKMTEVLDHEERVISNLSKVLEMVEECERRMQPDCSNPLTLDECARIFETLQDKYYEEYRMSDRVDLAVAIVYPLMKEYFKEWDPLKDCTYGTEIISKWKSLLENDQLLSHGGQDLSADAFHRLIWEVWMPFVRNIVTQWQPRNCDPMVDFLDSWVHIIPVWILDNILDQLIFPKLQKEVENWNPLTDTVPIHSWIHPWLPLMQARLEPLYSPIRSKLSSALQKWHPSDSSAKLILQPWKDVFTPGSWEAFMVKNIVPKLGMCLGELVINPHQQHMDAFYWVIDWEGMISVSSLVGLLEKHFFPKWLQVLCSWLSNSPNYEEITKWYLGWKSMFSDQVLAHPSVKDKFNEALDIMNRAVSSNVGAYMQPGARENIAYLTHTERRKDFQYEAMQERREAENMAQRGIGVAASSVPMNFKDLIETKAEEHNIVFMPVIGKRHEGKQLYTFGRIVIYIDRGVVFVQGEKTWVPTSLQSLIDMAK
# partner: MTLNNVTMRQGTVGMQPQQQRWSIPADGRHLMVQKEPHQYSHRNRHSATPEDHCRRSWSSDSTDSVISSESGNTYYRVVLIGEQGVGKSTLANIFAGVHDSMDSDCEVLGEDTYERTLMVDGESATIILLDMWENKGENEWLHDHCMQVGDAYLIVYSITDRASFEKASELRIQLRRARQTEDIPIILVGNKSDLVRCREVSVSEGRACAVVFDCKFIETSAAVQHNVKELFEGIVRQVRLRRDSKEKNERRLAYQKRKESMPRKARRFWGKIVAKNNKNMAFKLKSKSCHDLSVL
# B3: Glycodelin (Homo sapiens), P09466 (parent)
# chain: MLCLLLTLGVALVCGVPAMDIPQTKQDLELPKLAGTWHSMAMATNNISLMATLKAPLRVHITSLLPTPEDNLEIVLHRWENNSCVEKKVLGEKTENPKKFKINYTVANEATLLDTDYDNFLFLCLQDTTTPIQSMMCQYLARVLVEDDEIMQGFIRAFRPLPRHLWYLLDLKQMEEPCRF
# partner: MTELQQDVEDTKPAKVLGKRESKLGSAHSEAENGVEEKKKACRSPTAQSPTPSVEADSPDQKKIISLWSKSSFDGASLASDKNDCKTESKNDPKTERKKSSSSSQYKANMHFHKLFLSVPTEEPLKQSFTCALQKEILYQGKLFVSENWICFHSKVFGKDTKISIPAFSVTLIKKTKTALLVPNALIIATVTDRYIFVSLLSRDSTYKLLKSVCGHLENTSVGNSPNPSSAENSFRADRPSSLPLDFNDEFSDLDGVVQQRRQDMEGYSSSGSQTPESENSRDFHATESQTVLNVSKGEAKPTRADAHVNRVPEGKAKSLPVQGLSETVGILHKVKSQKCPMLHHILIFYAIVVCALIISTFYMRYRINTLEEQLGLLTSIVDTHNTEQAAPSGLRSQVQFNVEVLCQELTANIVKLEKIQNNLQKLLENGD
# B4: Zinc finger protein Aiolos (Homo sapiens), Q9UKT9 (parent)
# chain: MEDIQTNAELKSTQEQSVPAESAAVLNDYSLTKSHEMENVDSGEGPANEDEDIGDDSMKVKDEYSERDENVLKSEPMGNAEEPEIPYSYSREYNEYENIKLERHVVSFDSSRPTSGKMNCDVCGLSCISFNVLMVHKRSHTGERPFQCNQCGASFTQKGNLLRHIKLHTGEKPFKCHLCNYACQRRDALTGHLRTHSVEKPYKCEFCGRSYKQRSSLEEHKERCRTFLQSTDPGDTASAEARHIKAEMGSERALVLDRLASNVAKRKSSMPQKFIGEKRHCFDVNYNSSYMYEKESELIQTRMMDQAINNAISYLGAEALRPLVQTPPAPTSEMVPVISSMYPIALTRAEMSNGAPQELEKKSIHLPEKSVPSERGLSPNNSGHDSTDTDSNHEERQNHIYQQNHMVLSRARNGMPLLKEVPRSYELLKPPPICPRDSVKVINKEGEVMDVYRCDHCRVLFLDYVMFTIHMGCHGFRDPFECNMCGYRSHDRYEFSSHIARGEHRALLK
# partner: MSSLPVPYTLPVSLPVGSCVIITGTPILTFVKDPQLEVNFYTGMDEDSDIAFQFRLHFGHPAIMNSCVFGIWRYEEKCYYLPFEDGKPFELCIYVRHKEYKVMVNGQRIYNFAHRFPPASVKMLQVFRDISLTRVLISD
# Variants of: B1
# Conditions: with dcp1a_human DCP1A
row,effect of a mutation on the interaction,Variant
1,with no effect,A37S
2,with no effect,N95K

# Variants of: B2
# Conditions: with gem_human GEM
row,effect of a mutation on the interaction,Variant
1,with no effect,R8Q
2,with no effect,S688L

# Variants of: B3
# Conditions: with grm2b_human GRAMD2B
row,effect of a mutation on the interaction,Variant
1,with no effect,Q126K

# Variants of: B4
# Conditions: with ppl13_human LGALS14, Q8TCE9
row,effect of a mutation on the interaction,Variant
1,with no effect,N119D
